According to paper PMC4497409:

B1: Biotinylated human Norrin wild-type (pHL-Avitag3 construct) [modified: biotin on the C-terminal BirA recognition sequence (in vivo biotinylation); biotin on the C-terminal BirA recognition sequence (in vivo biotinylation)] (parent)
chain 1: KTDSSFIMDSDPRRCMRHHYVDSISHPLYKCSSKMVLLARCEGHCSQASRSEPLVSFSTVLKQPFRSSCHCCRPQTSKLKALRLRCSGGMRLTATYRYILSCHCEECNS
chain 2: ERRCDPIRISMCQNLGYNVTKMPNLVGHELQTDAELQLTTFTPLIQYGCSSQLQFFLCSVYVPMCTEKINIPIGPCGGMCLSVKRRCEPVLKEFGFAWPESLNCSKFPPQNDHNHMCMEGPGDEEVPLPHKTPIQPGE

Variants of: B1
Assay: SPR
Conditions: with Frizzled4 cysteine-rich domain (Fz4CRD), Norrin mutant immobilized on CM5 chip, Fz4CRD as analyte, 1:1 Langmuir binding model

Row | Variant | screen value (Surface: 325 RU (WT surface in panel A: 336 RU)) | Kd (Surface: 325 RU) | screen value (Surface: 435 RU (WT surface in panel A: 336 RU)) | Kd (Surface: 435 RU)
1 | chain 1 L28N K30S | 122 RU | 1250 nM |  | 
2 | chain 1 M90N L92S |  |  | 78 RU | 1060 nM
